Experimental data: patent US20220089647A1 (FUJIFILM, published 2022)
Starred links: 1 amine or outer side, 2 acyl side, 3 side chain; linkers in the order of their positions; H or OH if unused. Positions of bridges follow the written chain, without caps; N, C: chain ends. Non-standard residues stand in square brackets, D forms with d. Primed or numbered codes have the meaning given here. No end group written: not given here. Dab(acetyl)″ = 2-amino-4-(acetylamino)butanoic acid, acetyl CH3 carbon bonded to the S of Hcy (S-CH2-C(=O)-NH-), O=C(C[*:3])NCC[C@H](N[*:1])C(=O)[*:2]; Dab(acetyl) = 2-amino-4-acetylamino-butanoic acid residue (N-γ-acetyl-diaminobutyric acid), CC(=O)NCC[C@H](N[*:1])C(=O)[*:2]; Dap(acetyl) = 2-amino-3-acetylamino-propanoic acid residue, CC(=O)NC[C@H](N[*:1])C(=O)[*:2]; Orn(acetyl) = N-δ-acetyl-ornithine residue, CC(=O)NCCC[C@H](N[*:1])C(=O)[*:2]; COCH2 = acetyl group that carries the bridge; hCys = N[C@@H](CCS)C(=O)O; Dab = NCC[C@H](N)C(=O)O

B1: Cyclic peptide 65 (peptide)
peptide: KKK[hCys]IPRGDVF[Dab(acetyl)″]
modifications: thioether 4-12
B2: Cyclic peptide 10 (peptide)
peptide: KKK[hCys]IPRGDNF[Dab(acetyl)″]A
modifications: thioether 4-12
B3: Cyclic peptide 133 (peptide)
peptide: KKKGXIPRGDTFRXA
modifications: not fully specified; KKKG(Dab(acetyl))IPRGDTFR-(Pen)-A; thioether bond Dab(acetyl)-Pen
B4: Cyclic peptide 129 (peptide)
peptide: KKKGXIPRGDTFRXA
modifications: not fully specified; KKKG-(Pen)-IPRGDTFR(Dab(acetyl))A; thioether bond Pen-Dab(acetyl)
B5: Cyclic peptide 20 (peptide)
peptide: KKKG[hCys]AIPRGDNFRA[Dab](COCH2)A
modifications: thioether 5-16
B6: Cyclic peptide 18 (peptide)
peptide: KKK[hCys]AAIPRGDNFR[Dab](COCH2)A
modifications: thioether 4-15
B7: Cyclic peptide 17 (peptide)
peptide: KKK[hCys]AIPRGDNFRA[Dab](COCH2)A
modifications: thioether 4-15
B8: Cyclic peptide 28 (peptide)
peptide: KKKG[hCys]LPRGDSFR[Dab](COCH2)A
modifications: thioether 5-14
B9: Cyclic peptide 80 (peptide)
peptide: KKKAXIPRGDTPRXA
modifications: not fully specified; KKKA-(Hcy)-IPRGDTPR(Dab(acetyl))A; thioether bond Hcy-Dab(acetyl)
B10: Cyclic peptide 81 (peptide)
peptide: KKKAXIPRGDTYRXA
modifications: not fully specified; KKKA-(Hcy)-IPRGDTYR(Dab(acetyl))A; thioether bond Hcy-Dab(acetyl)
B11: Cyclic peptide 82 (peptide)
peptide: KKKAXIPRGDTFTXA
modifications: not fully specified; KKKA-(Hcy)-IPRGDTFT(Dab(acetyl))A; thioether bond Hcy-Dab(acetyl)
B12: Cyclic peptide 72 (peptide)
peptide: KKKGXIPRGDSFRXA
modifications: not fully specified; KKKG-(Hcy)-IPRGDSFR(Dab(acetyl))A; thioether bond Hcy-Dab(acetyl)
B13: Cyclic peptide 79 (peptide)
peptide: KKKAXIPRGDAFRXA
modifications: not fully specified; KKKA-(Hcy)-IPRGDAFR(Dab(acetyl))A; thioether bond Hcy-Dab(acetyl)
B14: Cyclic peptide 124 (peptide)
peptide: KKKAXIPRGDSFAXA
modifications: not fully specified; KKKA(Dab(acetyl))IPRGDSFA-(Hcy)-A; thioether bond Dab(acetyl)-Hcy
B15: Cyclic peptide 76 (peptide)
peptide: KKKAXITRGDTFRXA
modifications: not fully specified; KKKA-(Hcy)-ITRGDTFR(Dab(acetyl))A; thioether bond Hcy-Dab(acetyl)
B16: Cyclic peptide 137 (peptide)
peptide: KKKAXIPRGDSFAXA
modifications: not fully specified; KKKA(Dab(acetyl))IPRGDSFA-(Pen)-A; thioether bond Dab(acetyl)-Pen
B17: Cyclic peptide 113 (peptide)
peptide: KKKA[hCys]VTRGDVFT[Dab(acetyl)″]A
modifications: thioether 5-14
B18: Cyclic peptide 25 (peptide)
peptide: KKK[hCys]IPRGDSFR[Dab](COCH2)A
modifications: thioether 4-13
B19: Cyclic peptide 22 (peptide)
peptide: KKK[hCys]DPRGDNFR[Dab](COCH2)A
modifications: thioether 4-13
B20: Cyclic peptide 26 (peptide)
peptide: KKK[hCys]IPRGDNYR[Dab](COCH2)A
modifications: thioether 4-13
B21: Cyclic peptide 16 (peptide)
peptide: KKK[hCys]IPRGDNFRA[Dab](COCH2)A
modifications: thioether 4-14
B22: Cyclic peptide 131 (peptide)
peptide: KKKGXIPRGDTFRXA
modifications: not fully specified; KKKG-(Pen)-IPRGDTFR(Lys(acetyl))A; thioether bond Pen-Lys(acetyl)
B23: Cyclic peptide 12 (peptide)
peptide: KKKXIPRGDNFRX
modifications: not fully specified; KKK(Dap(acetyl))IPRGDNFR-(Hcy); thioether bond Dap(acetyl)-Hcy
B24: Cyclic peptide 138 (peptide)
peptide: KKKGXIPRGDTFRCA
modifications: not fully specified; KKKG(Dab(acetyl))IPRGDTFR(C)A; thioether bond Dab(acetyl)-Cys
B25: Cyclic peptide 15 (peptide)
peptide: KKK[hCys]AIPRGDNFR[Dab(acetyl)]A
modifications: thioether 4-14
B26: Cyclic peptide 135 (peptide)
peptide: KKKGXIPRGDTFRXA
modifications: not fully specified; KKKG(Lys(acetyl))IPRGDTFR-(Pen)-A; thioether bond Lys(acetyl)-Pen
B27: Cyclic peptide 66 (peptide)
peptide: KKK[hCys]VPRGDVF[Dab(acetyl)″]
modifications: thioether 4-12
B28: Cyclic peptide 30 (peptide)
peptide: KKKA[hCys]IPRGDNYR[Dab](COCH2)D
modifications: thioether 5-14
B29: Cyclic peptide 34 (peptide)
peptide: KKKA[hCys]EPRGDNFR[Dab](COCH2)D
modifications: thioether 5-14
B30: Cyclic peptide 32 (peptide)
peptide: KKKA[hCys]YPRGDNYR[Dab](COCH2)D
modifications: thioether 5-14
B31: Cyclic peptide 31 (peptide)
peptide: KKKA[hCys]LPRGDNYR[Dab](COCH2)D
modifications: thioether 5-14
B32: Cyclic peptide 39 (peptide)
peptide: KKKE[hCys]EPRGDNYR[Dab](COCH2)D
modifications: thioether 5-14
B33: Cyclic peptide 48 (peptide)
peptide: KKKA[Dap(acetyl)]EPRGDNYR[hCys]D
modifications: thioether 5-14
B34: Cyclic peptide 58 (peptide)
peptide: KKKG[hCys]IPRGDTF[Dab(acetyl)″]A
modifications: thioether 5-13
B35: Cyclic peptide 67 (peptide)
peptide: KKKG[hCys]AIPRGDTFRA[Dab(acetyl)″]A
modifications: thioether 5-16
B36: Cyclic peptide 68 (peptide)
peptide: KKKGXXPRGDTFRXA
modifications: not fully specified; KKKG-(Hcy)-(HmY)-PRGDTFR(Dab(acetyl))A; HmY = homotyrosine; thioether bond Hcy-Dab(acetyl)
B37: Cyclic peptide 132 (peptide)
peptide: KKKGXIPRGDTFRXA
modifications: not fully specified; KKKG(Dap(acetyl))IPRGDTFR-(Pen)-A; thioether bond Dap(acetyl)-Pen
B38: Cyclic peptide 134 (peptide)
peptide: KKKGXIPRGDTFRXA
modifications: not fully specified; KKKG(Orn(acetyl))IPRGDTFR-(Pen)-A; thioether bond Orn(acetyl)-Pen
B39: Cyclic peptide 3 (peptide)
peptide: KKK[hCys]IPRGDNFR[Dab](COCH2)A
modifications: thioether 4-13
B40: Cyclic peptide 23 (peptide)
peptide: KKK[hCys]EPRGDNFR[Dab](COCH2)A
modifications: thioether 4-13
B41: Cyclic peptide 57 (peptide)
peptide: KKK[hCys]IPRGDTFR[Dab(acetyl)″]A
modifications: thioether 4-13
B42: Cyclic peptide 5 (peptide)
peptide: KKK[hCys]IPRGDNFR[Dab(acetyl)″]D
modifications: thioether 4-13
B43: Cyclic peptide 21 (peptide)
peptide: KKK[hCys]VPRGDNFR[Dab](COCH2)A
modifications: thioether 4-13
B44: Cyclic peptide 4 (peptide)
peptide: KKK[hCys]IPRGDNFR[Dab](COCH2)G
modifications: thioether 4-13
B45: Cyclic peptide 24 (peptide)
peptide: KKK[hCys]YPRGDNFR[Dab](COCH2)A
modifications: thioether 4-13
B46: Cyclic peptide 139 (peptide)
peptide: KKKG[Orn(acetyl)]IPRGDTFRCA
modifications: thioether 5-14
B47: Cyclic peptide 19 (peptide)
peptide: KKK[hCys]IPRGDNFRAA[Dab](COCH2)A
modifications: thioether 4-15
B48: Cyclic peptide 130 (peptide)
peptide: KKKGXIPRGDTFRXA
modifications: not fully specified; KKKG-(Pen)-IPRGDTFR(Orn(acetyl))A; thioether bond Pen-Orn(acetyl)
B49: Cyclic peptide 7 (peptide)
peptide: KKKGXIPRGDNFRX
modifications: not fully specified; KKKG-(Hcy)-IPRGDNFR(Dab(acetyl)); thioether bond Hcy-Dab(acetyl)
B50: Cyclic peptide 59 (peptide)
peptide: KKKG[hCys]IPRGDTFR[Dab(acetyl)″]
modifications: thioether 5-14

Biological target: T1, human integrin αvβ5 (human, UniProt P06756 31-992; P18084 24-719, limits assumed)
T1 construct: Heterodimer flowed as analyte at 30, 100, 300 and 1,000 nM in HEPES buffer with 5 mM MgCl2
Assay: SPR, Biacore 3000, peptide immobilised; B = KD more than 50 nM and 100 nM or less
Description: (§1) However, only for the cyclic peptides 125, 126, and 127, in which the number of lysine residues having an amino group as the immobilizing functional group was zero, the amount of the sample solution to be supplied to the sensor chip was set to 500 μL instead of 20 μL. Further, 70 μL of the mixed aqueous solution of 0.2 M EDC and 0.04 M NHS was added to another flow channel of the same sensor chip without immobilizing the sample, and then blocking treatment and washing treatment were carried out. Hereinafter, the obtained immobilization-treated sensor chip is referred to as an “immobilization-treated sensor chip A”.
(§2) After adding human integrin αvβ5 for 10 minutes at 25° C., which was diluted to 30 nM using a HEPES buffer solution to which magnesium chloride was added to 5 mM, in each flow channel of the immobilization-treated sensor chip A prepared in (1) above, the same HEPES buffer solution (containing 5 mM magnesium chloride) was allowed to flow as a running buffer for 30 minutes, and measurement was carried out with Biacore 3000. Then, a regeneration treatment of removing human integrin αvβ5 was carried out by allowing a 0.5 M EDTA aqueous solution to flow through each flow channel for 10 minutes. Further, the above-described measurement process consisting of adding integrin for 10 minutes, allowing a running buffer to flow for 30 minutes, carrying out measurement with Biacore 3000, and carrying out regeneration treatment with 0.5 M EDTA aqueous solution was carried out in the same manner for 100 nM human integrin αvβ5, 300 nM human integrin αvβ5, and 1,000 nM human integrin αvβ5. Dissociation constant between the cyclic peptide and human integrin αvβ5 was calculated from the difference between the value measured by Biacore 3000 in the flow channel immobilized with the cyclic peptide and the value measured by Biacore 3000 in the flow channel unimmobilized with the cyclic peptide, in a case where each concentration of human integrin αvβ5 was allowed to flow, and the integrin binding property was evaluated according to the following evaluation standards. It is preferable that the evaluation result satisfies the evaluation standard A, B, or C.

T1 sequence (P06756 31-992 limits assumed, chain 1 of 2): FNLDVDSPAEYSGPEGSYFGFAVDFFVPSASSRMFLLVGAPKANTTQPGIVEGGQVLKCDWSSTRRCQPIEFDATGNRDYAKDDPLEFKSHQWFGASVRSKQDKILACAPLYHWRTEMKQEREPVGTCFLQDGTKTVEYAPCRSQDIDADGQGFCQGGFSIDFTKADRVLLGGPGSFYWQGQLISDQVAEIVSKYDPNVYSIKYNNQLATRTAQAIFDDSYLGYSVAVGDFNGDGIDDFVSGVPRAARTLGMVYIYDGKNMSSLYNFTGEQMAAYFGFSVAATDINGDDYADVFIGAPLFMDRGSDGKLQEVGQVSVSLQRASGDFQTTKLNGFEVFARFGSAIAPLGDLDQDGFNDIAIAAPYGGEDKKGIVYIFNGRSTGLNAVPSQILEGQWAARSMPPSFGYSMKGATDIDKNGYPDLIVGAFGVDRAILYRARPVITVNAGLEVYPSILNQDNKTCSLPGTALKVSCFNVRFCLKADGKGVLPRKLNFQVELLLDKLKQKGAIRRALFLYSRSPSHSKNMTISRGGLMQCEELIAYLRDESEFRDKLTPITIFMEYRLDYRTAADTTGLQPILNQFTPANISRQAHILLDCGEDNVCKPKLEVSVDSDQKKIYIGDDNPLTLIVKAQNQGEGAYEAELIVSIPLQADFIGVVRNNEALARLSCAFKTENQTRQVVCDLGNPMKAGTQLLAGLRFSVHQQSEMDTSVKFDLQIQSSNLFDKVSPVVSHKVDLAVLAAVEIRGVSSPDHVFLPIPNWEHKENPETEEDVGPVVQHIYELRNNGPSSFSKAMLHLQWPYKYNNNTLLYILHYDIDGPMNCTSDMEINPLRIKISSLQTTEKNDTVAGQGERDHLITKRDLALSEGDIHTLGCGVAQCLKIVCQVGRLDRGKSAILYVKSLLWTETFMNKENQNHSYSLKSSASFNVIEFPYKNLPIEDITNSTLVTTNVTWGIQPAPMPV
T1 sequence (P18084 24-719 limits assumed, chain 2 of 2): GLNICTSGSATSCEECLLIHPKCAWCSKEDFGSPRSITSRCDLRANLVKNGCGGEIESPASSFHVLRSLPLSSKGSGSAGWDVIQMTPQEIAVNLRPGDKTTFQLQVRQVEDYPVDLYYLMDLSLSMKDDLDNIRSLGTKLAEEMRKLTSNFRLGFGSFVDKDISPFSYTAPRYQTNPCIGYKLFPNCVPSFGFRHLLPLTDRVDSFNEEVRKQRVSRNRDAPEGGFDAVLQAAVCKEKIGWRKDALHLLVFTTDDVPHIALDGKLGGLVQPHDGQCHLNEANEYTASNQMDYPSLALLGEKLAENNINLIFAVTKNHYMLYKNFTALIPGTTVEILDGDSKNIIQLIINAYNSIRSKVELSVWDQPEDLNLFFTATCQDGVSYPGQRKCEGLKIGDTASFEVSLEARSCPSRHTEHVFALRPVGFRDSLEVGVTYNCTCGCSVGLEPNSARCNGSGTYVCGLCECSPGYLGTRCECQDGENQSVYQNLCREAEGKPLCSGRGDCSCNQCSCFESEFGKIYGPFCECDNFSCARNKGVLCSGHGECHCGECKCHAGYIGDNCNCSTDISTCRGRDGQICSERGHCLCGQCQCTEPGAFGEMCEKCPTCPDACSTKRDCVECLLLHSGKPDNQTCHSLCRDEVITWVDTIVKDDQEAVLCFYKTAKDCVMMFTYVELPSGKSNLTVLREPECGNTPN

| dissociation constant [nM] | dissociation constant (KD) [nM] | Binder |
| --- | --- | --- |
| 50 to 100 |  | B1 |
|  | 50 to 100 | B2 |
| 50 to 100 |  | B3 |
| 50 to 100 |  | B4 |
|  | 50 to 100 | B5 |
|  | 50 to 100 | B6 |
|  | 50 to 100 | B7 |
|  | 50 to 100 | B8 |
| 50 to 100 |  | B9 |
| 50 to 100 |  | B10 |
| 50 to 100 |  | B11 |
| 50 to 100 |  | B12 |
| 50 to 100 |  | B13 |
| 50 to 100 |  | B14 |
| 50 to 100 |  | B15 |
| 50 to 100 |  | B16 |
| 50 to 100 |  | B17 |
|  | 50 to 100 | B18 |
|  | 50 to 100 | B19 |
|  | 50 to 100 | B20 |
|  | 50 to 100 | B21 |
| 50 to 100 |  | B22 |
|  | 50 to 100 | B23 |
| 50 to 100 |  | B24 |
|  | 50 to 100 | B25 |
| 50 to 100 |  | B26 |

Biological target: T1, human integrin αvβ5
Assay: SPR, Biacore 3000, peptide immobilised; A = KD 50 nM or less
Description: as §1, §2

| dissociation constant [nM] | dissociation constant (KD) [nM] | Binder |
| --- | --- | --- |
| ≤ 50 |  | B27 |
|  | ≤ 50 | B28 |
|  | ≤ 50 | B29 |
|  | ≤ 50 | B30 |
|  | ≤ 50 | B31 |
|  | ≤ 50 | B32 |
|  | ≤ 50 | B33 |
|  | ≤ 50 | B34 |
| ≤ 50 |  | B35 |
| ≤ 50 |  | B36 |
| ≤ 50 |  | B37 |
| ≤ 50 |  | B38 |
|  | ≤ 50 | B39 |
|  | ≤ 50 | B40 |
|  | ≤ 50 | B41 |
|  | ≤ 50 | B42 |
|  | ≤ 50 | B43 |
|  | ≤ 50 | B44 |
|  | ≤ 50 | B45 |
| ≤ 50 |  | B46 |
|  | ≤ 50 | B47 |
| ≤ 50 |  | B48 |
|  | ≤ 50 | B49 |
|  | ≤ 50 | B50 |
